System: human cortical brain cells (neurons vs glia)
Assay: Adult human cortical brain cells cultured in B27/Neurobasal A, immunostained for neurofilament and GFAP
Format: cell-based
Settings: added in addition to FGF2, sample 4
From the text: GENERAL METHODS. Brain tissue was ethically obtained by informed consent from patients before surgery under protocols approved by the Springfield Committee for Research on Human Subjects and the UC Irvine IRB. […] Rather than using aspiration to remove all tissue, slices of tissue 1-3 mm thick were obtained from cortical access ports or tissue that was marginal to the lesion. Use of electrocautery was kept to a minimum to reduce oxyradicals and other neuron damage. […] Hibernate A contains D-glucose, pyruvate, balanced salts, amino acids, and vitamins. B27 contains 5 antioxidants and 15 other components. […] After transport on ice to a laminar flow sterile hood in the culture laboratory, meninges and white matter were removed from the tissue with a scalpel and forceps in a 35 mm dish in 2 ml transport medium. […] The cell suspension was enriched for neurons by centrifugation on a density gradient of Optiprep (Invitrogen). […] The diluted Optiprep was further diluted with transport medium (v/v) to make a gradient containing 4 steps of 1 ml in a 15 ml centrifuge tube: bottom (0.35:0.65), 0.25:0.75, 0.2:0.8, top (0.15:0.85). Up to 6 ml of cell suspension was layered over the Optiprep step gradient. […] Cells were plated at a density of 320/mm^2 onto glass coverslips coated with polylysine as previously described. […]

B1: NT3: trophic factor NT3, recombinant, Regeneron (protein, UniProt P20783 139-257, looked up)
Neurotrophin-3: YAEHKSHRGEYSVCDSESLWVTDKSSAIDIRGHQVTVLGEIKTGNSPVKQYFYETRCKEARPVKNGCRGIDDKHWNSQCKTSQTYVRALTSENNKLVGWRWIRIDTSCVCALSRKIGRT
survival of neurofilament positive cells versus FGF2 alone: no more efficacious

Source: US20080160006A1, “Nutrient Medium for Maintaining Neural Cells in Injured Nervous System” (priority 2001, published 2008)
